{
  "source": "patent US9675625B2",
  "about": "“Medicament comprising recombinant antibody against chemokine receptor CCR4” (KYOWA HAKKO KIRIN CO., LTD., priority 2003, dated 2017)",
  "molecules": {"B1": {"name": "KM 2760: anti-CCR4 human chimeric antibody KM 2760 (FERM BP-7054, WO 01/64754) (antibody, V domains shown)", "VH": "EVQLVESGGDLMKPGGSLKISCAASGFIFSNYGMSWVRQTPDMRLEWVATISSASTYSYYPDSVKGRFTISRDNAENSLYLQMNSLRSEDTGIYYCGRHSDGNFAFGYWGRGTLVTVSA", "VL": "DVLMTQTPLSLPVSLGDQASISCRSSRNIVHINGDTYLEWYLQRPGQSPKLLIYKVSNRFSGVPDRFSGSGSGTDFTLKISRVEAEDLGVYYCFQGSLLPWTFGGGTRLEIRR"}},
  "key": {"[1]": {"system": "CCR4/EL4 cells", "experiment": "in vitro cytotoxic activity (ADCC) of KM 2760 with cytokine-stimulated effector cells, LDH release", "type": "cell-based, mouse", "details": "KM 2760 1 or 100 ng/mL, effector:target 15:1, 37° C. 4 hours, no cytokine, FIG. 1", "experimental": "An effect of using anti-CCR4 human chimeric antibody KM 2760 (FERM BP-7054, WO 01/64754) and a cytokine in combination in an in vitro cytotoxic activity was measured by the following method.\nA vein blood (50 mL) was collected from a healthy person, 0.5 mL of heparin sodium (manufactured by Shimizu Seiyaku K.K.) was added, and they were gently mixed. A mononuclear cell layer was separated from using a MONO-POLY separation solution (manufactured by Dainippon Pharmaceutical Co., Ltd.) according to the attached manual. […]\nThe target cell suspension (50 μL) prepared in the above (c) was added to each well of a 96-well U-shaped bottom plate containing the effector cells stimulated with the cytokine in the above (b) such that the concentration became 1×10^4 cells/well. […] After the reaction, the plate was subjected to centrifugation, and a lactic acid dehydrogenase (hereinafter referred to as LDH) activity in the supernatant was measured by obtaining an absorbance data with CytoTox96 Non-Radioactive Cytotoxic activity Assay (manufactured by Promega) according to the attached manual. […] Cytotoxic activity (%)=[(absorbance of a specimen)−(absorbance of effector cell spontaneous release)−(absorbance of target cell spontaneous release)]/[(absorbance of target cell total release)−(absorbance of target cell spontaneous release)]×100 (Formula 1)"}, "[2]": {"system": "CCR4/EL4 cells", "experiment": "antitumor effect of KM 2760 and IFN-α in combination, CCR4/EL4 cells grafted into tail vein of C57BL/6 mice, liver weight ratio", "type": "in vivo, C57BL/6 mouse", "experimental": "CCR4/EL4 cells were suspended in RPMI 1640 medium (manufactured by Gibco BRL) at a concentration of 5×10^5 cells/mL, and 100 μl of the suspension was grafted into the tail vein of C57BL/6 mice (CLEA Japan Inc., male, 8 weeks old). Further, mice were grouped into A to D, and each of the agents A to D were administered to the mice. Incidentally, the day on which the tumor was grafted was defined as Day 0.\nB. Group of administering IFN-α alone: 5×10^4 units of IFN-α (Universal type I interferon, manufactured by PBL Biomedical Laboratories) was intravenously administered per mouse once a day for 5 days from Day 1 to Day 5.\nThe experiment was conducted with group A consisting of 7 mice and groups B, C and D each consisting of 6 mice. […] The weight of all mice was measured on Day 14. After etherization and exsanguination, mice were brought to euthanasia by dislocation of the cervical spine. The liver was extracted, and the weight of the liver was then measured. A ratio of the liver weight to the weight of each individual (hereinafter referred to as a weight ration of a liver) was calculated by percentage.\nThe antitumor effect was evaluated by comparing the liver weight ratio (average value of six mice) of untreated healthy mice measured simultaneously and the liver weight ratio of each group increased by metastasis of tumor cells.\nFurther, the residual amount of tumor cells in the liver in each group was calculated as a T/C value using the following formula. T/C=(average values of a weight ration of a liver of each group−average value of a weight ration of a liver of an untreated mouse)/(average value of a weight ration of a liver of a negative control group−average value of a weight ration of a liver of an untreated mouse) (Formula 4)"}},
  "data": [
    {"molecule": "B1", "values": [
      {"measurement": "cytotoxic activity", "setting": "[1]", "result": "increased in a concentration-dependent manner"},
      {"measurement": "T/C value (residual amount of tumor cells in the liver, from liver weight ratio)", "setting": "[2]; Day 14, KM 2760 0.5 μg per mouse i.v. Day 1 and Day 5, IFN-α 5×10^4 units per mouse i.v. Day 1 to Day 5", "result": 0.52},
      {"measurement": "antitumor effect compared to untreated group A (liver weight ratio)", "setting": "[2]; FIG. 7, Day 14", "result": "low"}
    ]}
  ]
}
